Measured values: patent publication US20230391828A1, “REGULATORS OF CELL DIVISION” (TECHNISCHE UNIVERSITÄT DRESDEN, priority 2020, published 2023)
Bridge positions count the residues as written; N and C are the ends. Square brackets hold non-standard residues; d marks the D form. R8 = C=CCCCCCC[C@@](C)(N)C(=O)O; S5 = C=CCCC[C@](C)(N)C(=O)O

Assays:
[1] = target: recombinant human APC/C (Strep-tagged APC4), expressed in SF9 cells (human) (UniProt Q9NYG5); experiment: cell-based or functional assay
[2] = target: recombinant human APC/C (Strep-tagged APC4), expressed in SF9 cells (human) (UniProt Q9NYG5); experiment: inhibitory constant calculated with a model for non-competitive inhibition (Prism 6.0) from the in vitro APC/C ubiquitination assay (UBE2C, securin titration, with or without 3 µM G3-6)

Sequence of recombinant human APC/C (Strep-tagged APC4), expressed in SF9 cells (human) (Q9NYG5 whole entry, chain 1 of 2): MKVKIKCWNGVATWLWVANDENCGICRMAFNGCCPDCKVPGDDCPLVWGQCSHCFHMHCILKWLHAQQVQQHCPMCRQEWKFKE
Sequence of recombinant human APC/C (Strep-tagged APC4), expressed in SF9 cells (human) (Q9UJX5 whole entry, chain 2 of 2, further chain): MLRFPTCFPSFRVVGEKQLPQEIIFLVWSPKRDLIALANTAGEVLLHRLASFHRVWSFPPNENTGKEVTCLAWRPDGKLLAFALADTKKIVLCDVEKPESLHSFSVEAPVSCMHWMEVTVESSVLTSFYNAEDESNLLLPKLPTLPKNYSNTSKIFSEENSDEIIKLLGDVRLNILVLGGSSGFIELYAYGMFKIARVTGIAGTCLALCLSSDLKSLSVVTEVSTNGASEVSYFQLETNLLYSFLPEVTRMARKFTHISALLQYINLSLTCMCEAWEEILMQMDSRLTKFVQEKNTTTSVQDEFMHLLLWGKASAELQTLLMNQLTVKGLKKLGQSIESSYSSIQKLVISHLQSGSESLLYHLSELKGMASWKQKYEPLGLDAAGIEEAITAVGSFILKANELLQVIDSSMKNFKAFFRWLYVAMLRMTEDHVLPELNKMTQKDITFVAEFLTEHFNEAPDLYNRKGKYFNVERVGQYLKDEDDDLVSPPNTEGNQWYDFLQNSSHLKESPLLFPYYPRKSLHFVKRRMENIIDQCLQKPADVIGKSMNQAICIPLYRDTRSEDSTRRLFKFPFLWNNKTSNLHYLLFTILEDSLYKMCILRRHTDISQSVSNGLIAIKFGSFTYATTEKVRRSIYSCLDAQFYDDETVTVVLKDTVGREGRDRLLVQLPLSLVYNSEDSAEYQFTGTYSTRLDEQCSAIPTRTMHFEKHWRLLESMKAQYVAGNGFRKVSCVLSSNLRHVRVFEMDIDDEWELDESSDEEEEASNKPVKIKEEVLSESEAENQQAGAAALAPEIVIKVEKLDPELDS

IC50, in vitro APC/C ubiquitination assay (UBE2C, securin, methylated ubiquitin, 0.01-100 µM G3-6, 10 min) [1]: 1.96 µM | Ki [2]: 5 µM
B1: G3-6, Ac-cyclo(4,11)-EWWZIKEIQRXRRA-NH2 (peptide)
peptide: Ac-EWW[R8]IKEIQR[S5]RRA-NH2
modifications: staple 4-11
SMILES: CC[C@H](C)[C@@H]1NC(=O)[C@H](CCC(=O)O)NC(=O)[C@H](CCCCN)NC(=O)[C@H]([C@@H](C)CC)NC(=O)[C@](C)(NC(=O)[C@H](Cc2c[nH]c3ccccc23)NC(=O)[C@H](Cc2c[nH]c3ccccc23)NC(=O)[C@H](CCC(=O)O)NC(C)=O)CCCCCCC=CCCC[C@@](C)(C(=O)N[C@@H](CCCNC(=N)N)C(=O)N[C@@H](CCCNC(=N)N)C(=O)N[C@@H](C)C(N)=O)NC(=O)[C@H](CCCNC(=N)N)NC(=O)[C@H](CCC(N)=O)NC1=O
